Experimental data published in article PMC3950713.

Legend:
Test in all cases: MST
[1] = target: T1, HpDprA(5-217)H8E (Helicobacter pylori 26695, UniProt O25100 5-217, H8E)
T1 sequence: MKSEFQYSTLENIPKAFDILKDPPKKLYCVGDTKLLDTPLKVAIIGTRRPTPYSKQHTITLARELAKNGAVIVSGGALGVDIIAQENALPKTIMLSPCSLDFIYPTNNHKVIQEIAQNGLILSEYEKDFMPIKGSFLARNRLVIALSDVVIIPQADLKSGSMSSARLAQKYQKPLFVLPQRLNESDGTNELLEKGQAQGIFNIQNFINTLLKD

[2] = target: T2, HpDprA(5-217)WT (Helicobacter pylori 26695, UniProt O25100 5-217)
T2 sequence: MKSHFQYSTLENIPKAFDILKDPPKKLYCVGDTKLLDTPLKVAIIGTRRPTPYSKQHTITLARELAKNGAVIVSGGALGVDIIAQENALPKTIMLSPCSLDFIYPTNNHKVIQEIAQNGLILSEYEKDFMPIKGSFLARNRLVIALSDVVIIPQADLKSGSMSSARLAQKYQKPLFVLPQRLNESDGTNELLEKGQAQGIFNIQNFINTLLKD

[3] = target: T3, HpDprA(5-217)K137E/R143E (Helicobacter pylori 26695, UniProt O25100 5-217, K137E;R143E)
T3 sequence: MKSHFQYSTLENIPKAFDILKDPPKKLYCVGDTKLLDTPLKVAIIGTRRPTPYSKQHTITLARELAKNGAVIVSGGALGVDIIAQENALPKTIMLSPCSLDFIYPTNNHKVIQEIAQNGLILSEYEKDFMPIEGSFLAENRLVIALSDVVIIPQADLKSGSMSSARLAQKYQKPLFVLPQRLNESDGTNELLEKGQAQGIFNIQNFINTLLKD

[4] = target: T4, HpDprA(5-217)F140E (Helicobacter pylori 26695, UniProt O25100 5-217, F140E)
T4 sequence: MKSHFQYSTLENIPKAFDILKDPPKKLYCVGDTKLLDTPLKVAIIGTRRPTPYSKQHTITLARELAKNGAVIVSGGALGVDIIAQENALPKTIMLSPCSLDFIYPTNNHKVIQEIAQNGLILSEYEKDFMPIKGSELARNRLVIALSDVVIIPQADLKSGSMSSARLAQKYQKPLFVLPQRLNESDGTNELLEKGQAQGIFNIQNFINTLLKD

[5] = target: T5, HpDprA(5-217)Y108E (Helicobacter pylori 26695, UniProt O25100 5-217, Y108E)
T5 sequence: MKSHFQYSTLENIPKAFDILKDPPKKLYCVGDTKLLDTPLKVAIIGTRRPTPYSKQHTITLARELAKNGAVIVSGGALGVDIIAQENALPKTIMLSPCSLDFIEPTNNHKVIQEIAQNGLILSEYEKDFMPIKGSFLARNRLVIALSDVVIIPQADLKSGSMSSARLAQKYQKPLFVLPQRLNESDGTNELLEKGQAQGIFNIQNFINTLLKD

[6] = target: T6, HpDprA(5-225) (Helicobacter pylori 26695, UniProt O25100 5-225)
T6 sequence: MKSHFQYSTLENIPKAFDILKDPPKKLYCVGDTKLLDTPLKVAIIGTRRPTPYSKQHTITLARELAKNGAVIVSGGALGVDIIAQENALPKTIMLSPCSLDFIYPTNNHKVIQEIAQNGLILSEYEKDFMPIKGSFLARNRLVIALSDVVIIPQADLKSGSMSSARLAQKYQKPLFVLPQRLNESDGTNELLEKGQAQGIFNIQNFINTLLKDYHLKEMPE

B1: dT35 (ssDNA)
DNA: TTTTTTTTTTTTTTTTTTTTTTTTTTTTTTTTTTT
Q: For B1, which Kd [1] is on record?
A: 66.3 ± 0.721 nM

Q: What about the Kd [2] of the same binder?
A: 31.5 ± 0.806 nM

Q: Does B1 bind [3]?
A: no binding

Q: And the Kd [4]?
A: 556 ± 28 nM

Q: And the Kd [5]?
A: 351 ± 6.88 nM

Q: And the Kd [6]?
A: 30.6 ± 0.998 nM
